B1: Gem-associated protein 2 (Homo sapiens), O14893 (parent)
chain: MRRAELAGLKTMAWVPAESAVEELMPRLLPVEPCDLTEGFDPSVPPRTPQEYLRRVQIEAAQCPDVVVAQIDPKKLKRKQSVNISLSGCQPAPEGYSPTLQWQQQQVAQFSTVRQNVNKHRSHWKSQQLDSNVTMPKSEDEEGWKKFCLGEKLCADGAVGPATNESPGIDYVQIGFPPLLSIVSRMNQATVTSVLEYLSNWFGERDFTPELGRWLYALLACLEKPLLPEAHSLIRQLARRCSEVRLLVDSKDDERVPALNLLICLVSRYFDQRDLADEPS

Variants of: B1
Conditions: with smn_human SMN1, Q16637
Chain of smn_human SMN1, Q16637 (Q16637 whole entry): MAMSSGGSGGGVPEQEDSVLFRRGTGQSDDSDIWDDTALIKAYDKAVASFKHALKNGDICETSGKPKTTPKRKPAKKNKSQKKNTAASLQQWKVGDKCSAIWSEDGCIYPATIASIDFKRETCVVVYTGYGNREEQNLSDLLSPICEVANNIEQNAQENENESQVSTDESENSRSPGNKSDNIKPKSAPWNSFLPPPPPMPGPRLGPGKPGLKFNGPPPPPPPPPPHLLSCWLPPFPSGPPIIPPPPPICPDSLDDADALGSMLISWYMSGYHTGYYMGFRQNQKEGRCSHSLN

Row | effect of a mutation on the interaction | Variant
1 | disrupting interaction | MRRAELAGLKTMAWVPAESAVEELMPRLLPVEPCDLTEGFDPSVPPRTPQEYLRRVQIEAAQCPDVVVAQIDPKKLKRKQSVNISLSGCQPAPEGYSPTLQWQQQQVAQFSTVRQNVNKHRSHWKSQQLDSNVTMPKSEDEEGWKKFCLGEKLCADGAVGPATNESPGIDYVQIGFPPLLSIVSRMNQATVTSVLEYLSNWFGERDFTPELGDWLYALLACLEKPLLPEAHSLIRQLARRCSEVRLLVDSKDDERVPALNLLICLVSRYFDQRDLADEPS [R213D]
